According to patent US10975142B2, “Endotrophin neutralization and use thereof” (THE BOARD OF REGENTS OF THE UNIVERSITY OF TEXAS SYSTEM, priority 2013, dated 2021):

Legend:
endotrophin+-tumors = assay: allografts of Ctrl- and endotrophin+-cancer cells in wild-type hosts, TZD and cisplatin; assay type: in vivo, mouse; conditions: cisplatin 1 mg/kg ip. every 5 days, TZD 20 mg/kg or ND
Method: FIGS. 21A-21F. TZD synergizes cisplatin sensitivity through suppression of endotrophin-mediated EMT, fibrosis and vasculature. FIGS. 21A-21B. Schematic diagram for allografts (FIG. 21A), indicating cancer cells (0.5×10^6 cells/mouse) were isolated from tumors in PyMT (Ctrl) and PyMT/endotrophin (ETP) mice and implanted into wild-type hosts. Host mice were given TZD (20 mg/kg) or ND diet at 10 days before implantation for tumor progression. Cisplatin (1 mg/kg, ip., every 5 days) was administered at 3-weeks post implantation. […] Data represent mean±SD (n=8-9/group). *p=0.05, **p=0.01 and ***p=0.001 Ctrl/ND vs. ETP/ND; ^##p=0.01 and ^###p=0.001 ETP/ND vs. ETP/TZD by unpaired student t-test. FIGS. 21C-21F. Histological analysis of tumors in allografts after cisplatin treatment. […] Vimentin staining quantification (FIG. 21D), showing decreased EMT in both Ctrl- and endotrophin^+-tumors by TZD. ***p<0.0001 and ^###p<0.0001. Quantification of perfused lectin staining (FIG. 21E), showing the increased functional blood vessels in endotrophin^+-tumors was decreased by TZD. *p=0.015, **p=0.001 and ^##p=0.0088. Masson's Trichrome C staining quantification (FIG. 21F), showing increased fibrosis in endotrophin^+-tumors was decreased by TZD. ***p<0.0001 and ^##p=0.0013. […] Statistics (*Ctrl/ND/CIS vs. Ctrl/TZD/CIS or ETP/ND/CIS; ^#ETP/ND/CIS vs. ETP/TZD/CIS) were analyzed by unpaired student t-test. […]

ETP+-cancer cells = assay: allograft of FP635/ETP+-cancer cells in Matrigel plug with or without 10B6; assay type: in vivo, mouse
Method: FIGS. 8A-8I: 10B6 blocks ETP-mediated stromal expansion in vivo. (FIG. 8A) 10B6 (200 μg/mouse) was i.p. injected twice weekly into PyMT mice from 9 to 13 weeks of age. Tumor growth (mean±SEM; n=4-6 per group) was determined by weekly caliper measurements. *P<0.05, **P<0.01, ***P<0.001 vs. IgG control, 2-way ANOVA. (FIG. 8B) Primary mammary epithelial cancer cells were isolated from 12-week-old FP635/PyMT and FP635/PyMT/ETP mice and implanted into WT recipients with the same volume of Matrigel. For the 10B6 group, 10B6 was added in a Matrigel plug (10 μg/plug) admixed with ETP^+-cancer cells (i.e., ETP^+/10B6). A representative whole-body image was acquired 25 days after implantation using IVIS fluorescence scanner. Artificial color indicates fluorescence signal intensity accounts for tumor volume (AU). Quantitative results are represented as mean±SEM (n=3 per group). *P<0.05, unpaired t test. (FIGS. 8C-8I) 6 weeks after implantation, tumor tissues were excised from Ctrl-, ETP^+-, and ETP^+/10B6-cancer cells allografted mice and stained for H&E (FIG. 8C), Masson's Trichrome C (FIG. 8D), α-SMA (FIG. 8E), FSP-1 (FIG. 8F), CD31 (FIG. 8G), F4/80 (FIG. 8H), and Ki67 (FIG. 8I). Quantified results in FIGS. 8D-8I are mean±SEM (multiple images, n=3 per group). *P<0.05, **P<0.01, unpaired t test. Scale bars: 50 μm. (FIG. 8J) Working model for ETP in mammary tumor progression.
Isolation of mammary epithelial cancer cells and implantation procedures were as previously described. Tumor growth was monitored once weekly beginning 2 weeks after implantation.

[1] = test system: diet induced obese (DIO) mice; assay: diet induced obese mice, hyperinsulinemic-euglycemic clamp; assay type: in vivo; conditions: 10B6 100 μg/mouse vs IgG
Method: FIGS. 24A-24D: Endotrophin neutralization improves the metabolic phenotype. FIG. 24A. Two cohorts of mice (n=8) were exposed to high fat diet for 45 days after weaning. At the indicated time points (arrowheads), mice were treated with anti-endotrophin monoclonal antibodies (100 μg/mouse) or equivalent amounts of non-immune antibody. Body weights were monitored. FIG. 24B. Glucose infusion rate and FIG. 24C. Suppression of hepatic glucose efflux was measured in a hyperinsulinemic euglycemic clamp. FIG. 24D. Table of parameters measured prior and during the clamp. Significant differences as indicated by unpaired student t-test.
To evaluate the therapeutic potential of endotrophin neutralizing monoclonal antibodies on metabolic perspectives, diet induced obese (DIO) mice were chronically treated with either IgG control or 10B6 (rat anti-mouse endotrophin monoclonal antibody) via intraperitoneal injection at 2 weeks after high-fat diet (HFD) challenge and maintained them on a HFD with antibody treatment for another 4 weeks. […] Strikingly, 10B6 treated DIO mice improved whole-body insulin sensitivity, as determined by the amount of glucose required to maintain euglycemia (FIG. 24B) and by the amount of suppression of hepatic glucose efflux (FIGS. 24C and D).

`N.N.[Cl][Pt][Cl]` [cisplatin, cis-diammine-dichloro-platinum] was tested, and the “tumor growth (volume) of endotrophin+-tumors” value (endotrophin+-tumors) was “more resistant”.

B1: 10B6: rat anti-mouse endotrophin monoclonal antibody; light chain variable SEQ ID NO: 2, heavy chain variable SEQ ID NO: 4 (antibody, V domains shown)
VH: QVQLQQSGPELAKPGSSVKISCKASGYTFTSYEMHWIKQRPGQGLEWIGYIYPESGSTGYNEKFKGKATLTVDKSSPTAYMQLSSLTPDNSAVYFCTRGLRVLGYVMDVWGHGTSVTVSS
VL: DVQLTQSPSFLSASVGDRVTINCKASQNINKYLNWYQQKLGEAPKRLIYNTNNLQTGIPSRFSGSASGTDYTLTISSLHPEDFATYFCLQHSSLYTFGAGTKLELK
With B1 the tumor regression (ETP+-cancer cells; 6 weeks after implantation) was “triggered tumor regression”, the “ETP+-cancer cell growth (fluorescence imaging)” value (ETP+-cancer cells; 10B6 10 μg/plug) was “effectively attenuated” and the “ETP-mediated tumor stromal expansion” value (ETP+-cancer cells; H&E, 6 weeks after implantation) was “inhibited”. The “ETP-mediated increase in fibrosis and stromal expansion” value (ETP+-cancer cells; Masson's Trichrome C, α-SMA, FSP-1, CD31, F4/80) was “completely blocked” and the “whole-body insulin sensitivity (glucose required to maintain euglycemia, suppression of hepatic glucose efflux)” value [1] was “improved”.
